Columns and labels:
[1] = substrate: O=C(NO)c1ccc(Cn2c(=O)n(CCc3ccccc3)c(=O)c3ccccc32)cc1; conditions: Homo sapiens; Sf9
Description: Competitive inhibition of human full-length recombinant HDAC6 expressed in baculovirus infected Sf9 insect cells assessed as substrate Km using Boc-Lys (Ac)-AMC as substrate preincubated for 10 mins followed by substrate addition and measured after 30 mins by fluorescence assay

[2] = substrate: CN1CCc2c(c3ccccc3n2Cc2ccc(C(=O)NO)cc2)C1; conditions: Homo sapiens; Sf9
Description: (§1) Inhibition of human full-length recombinant HDAC6 expressed in baculovirus infected Sf9 insect cells assessed as substrate Km using Boc-Lys (Ac)-AMC as substrate preincubated for 10 mins followed by substrate addition and measured after 30 mins by fluorescence assay

[3] = substrate: COc1ccccc1CCn1c(=O)c2ccccc2n(Cc2ccc(C(=O)NO)cc2)c1=O; conditions: Homo sapiens; Sf9
Description: as §1

[4] = substrate: O=C(NO)c1ccc(Cn2c(=O)n(CCc3ccccc3)c(=O)c3cccnc32)cc1; conditions: Homo sapiens; Sf9
Description: as §1

[5] = substrate: O=C(NO)c1ccc(Cn2c(=O)n(CCc3ccccc3)c(=O)c3ccccc32)cc1; conditions: Homo sapiens
Description: Competitive inhibition of human HDAC6 CD2 expressed in Escherichia coli BL21 (RIL) assessed as substrate Km using Boc-Lys (Ac)-AMC as substrate preincubated for 10 mins followed by substrate addition and measured after 30 mins by fluorescence assay

[6] = substrate: COc1ccccc1CCn1c(=O)c2ccccc2n(Cc2ccc(C(=O)NO)cc2)c1=O; conditions: Homo sapiens
Description: (§2) Inhibition of human HDAC6 CD2 expressed in Escherichia coli BL21 (RIL) assessed as substrate Km using Boc-Lys (Ac)-AMC as substrate preincubated for 10 mins followed by substrate addition and measured after 30 mins by fluorescence assay

[7] = substrate: O=C(NO)c1ccc(Cn2c(=O)n(CCc3ccccc3)c(=O)c3cccnc32)cc1; conditions: Homo sapiens
Description: as §2

B1: Protein deacetylase HDAC6 (Homo sapiens), Q9UBN7 (protein)
chain: MTSTGQDSTTTRQRRSRQNPQSPPQDSSVTSKRNIKKGAVPRSIPNLAEVKKKGKMKKLGQAMEEDLIVGLQGMDLNLEAEALAGTGLVLDEQLNEFHCLWDDSFPEGPERLHAIKEQLIQEGLLDRCVSFQARFAEKEELMLVHSLEYIDLMETTQYMNEGELRVLADTYDSVYLHPNSYSCACLASGSVLRLVDAVLGAEIRNGMAIIRPPGHHAQHSLMDGYCMFNHVAVAARYAQQKHRIRRVLIVDWDVHHGQGTQFTFDQDPSVLYFSIHRYEQGRFWPHLKASNWSTTGFGQGQGYTINVPWNQVGMRDADYIAAFLHVLLPVALEFQPQLVLVAAGFDALQGDPKGEMAATPAGFAQLTHLLMGLAGGKLILSLEGGYNLRALAEGVSASLHTLLGDPCPMLESPGAPCRSAQASVSCALEALEPFWEVLVRSTETVERDNMEEDNVEESEEEGPWEPPVLPILTWPVLQSRTGLVYDQNMMNHCNLWDSHHPEVPQRILRIMCRLEELGLAGRCLTLTPRPATEAELLTCHSAEYVGHLRATEKMKTRELHRESSNFDSIYICPSTFACAQLATGAACRLVEAVLSGEVLNGAAVVRPPGHHAEQDAACGFCFFNSVAVAARHAQTISGHALRILIVDWDVHHGNGTQHMFEDDPSVLYVSLHRYDHGTFFPMGDEGASSQIGRAAGTGFTVNVAWNGPRMGDADYLAAWHRLVLPIAYEFNPELVLVSAGFDAARGDPLGGCQVSPEGYAHLTHLLMGLASGRIILILEGGYNLTSISESMAACTRSLLGDPPPLLTLPRPPLSGALASITETIQVHRRYWRSLRVMKVEDREGPSSSKLVTKKAPQPAKPRLAERMTTREKKVLEAGMGKVTSASFGEESTPGQTNSETAVVALTQDQPSEAATGGATLAQTISEAAIGGAMLGQTTSEEAVGGATPDQTTSEETVGGAILDQTTSEDAVGGATLGQTTSEEAVGGATLAQTTSEAAMEGATLDQTTSEEAPGGTELIQTPLASSTDHQTPPTSPVQGTTPQISPSTLIGSLRTLELGSESQGASESQAPGEENLLGEAAGGQDMADSMLMQGSRGLTDQAIFYAVTPLPWCPHLVAVCPIPAAGLDVTQPCGDCGTIQENWVCLSCYQVYCGRYINGHMLQHHGNSGHPLVLSYIDLSAWCYYCQAYVHHQALLDVKNIAHQNKFGEDMPHPH
[1]
  Km: 16.7 µM
[2]
  Km: 29.1 µM
[3]
  Km: 34.6 µM
[4]
  Km: 21.8 µM
[5]
  Km: 29.8 µM
[6]
  Km: 32.5 µM
[7]
  Km: 35.3 µM
